Tests used:
Test in all cases: IEDB peptide-MHC binding, purified MHC/competitive/radioactivity; ≥ and ≤ were set here for values at or beyond the usual limits of such assays
[1] = target: HLA-A*02:06
[2] = target: HLA-A*02:02
[3] = target: HLA-A*02:03
[4] = target: HLA-A*02:01
[5] = target: HLA-A*68:02
[6] = source organism: Vaccinia virus WR
[7] = source organism: Influenza A virus
[8] = source organism: Mammarenavirus lassaense
[9] = source organism: Mammarenavirus brazilense

Row | Sequence | IC50 [1, 6] | IC50 [2, 6] | IC50 [3, 6] | IC50 [4, 6] | IC50 [5, 6] | other results
1 | NIPELKHGLL | 1230 nM | 2300 nM | 2700 nM | 2560 nM | 100 nM | 
2 | LALKNSQAEL | 1250 nM | 741 nM | 333 nM | 3760 nM | 3660 nM | 
3 | FVYVSVMNFI | 7.5 nM | 76 nM | 18 nM | 704 nM | 57 nM | 
4 | LVIGFLFLA |  |  |  |  |  | IC50 ([1]; source organism: SARS-CoV1): 0.095 nM; IC50 ([2]; source organism: SARS-CoV1): 7.4 nM; IC50 ([3]; source organism: SARS-CoV1): 20 nM; IC50 ([4]; source organism: SARS-CoV1): 1.4 nM; IC50 ([5]; source organism: SARS-CoV1): 26 nM
5 | NLTQLFKYV | 657 nM | 320 nM | 238 nM | 1180 nM | 4340 nM | 
6 | WVMDTLNGIM | 129 nM | 1330 nM | 194 nM | 175 nM | 101 nM | 
7 | FLAHLQWFA |  |  |  |  |  | IC50 ([1]; source organism: SARS-CoV1): 0.57 nM; IC50 ([2]; source organism: SARS-CoV1): 0.1 nM; IC50 ([3]; source organism: SARS-CoV1): 0.21 nM; IC50 ([4]; source organism: SARS-CoV1): 0.1 nM; IC50 ([5]; source organism: SARS-CoV1): 17 nM
8 | ILPDKIDGL | 43 nM | 1 nM | 3.5 nM | 62 nM | 4000 nM | 
9 | NLILNFLDWI | 443 nM | 1690 nM | 283 nM | 4390 nM | 3710 nM | 
10 | TILATLNTLI | 335 nM | 40 nM | 30 nM | 184 nM | 1470 nM | 
11 | STDQDTMLFA | 2020 nM | 646 nM | 4700 nM | 3520 nM | 1550 nM | 
12 | MIIGEPIIVA | 124 nM | 42 nM | 111 nM | 44 nM | 280 nM | 
13 | FLFWFLKSGA | 23 nM | 1.1 nM | 0.58 nM | 1.9 nM | 38 nM | 
14 | SIYIAVANCV | 1000 nM | 534 nM | 63 nM | 1460 nM | 306 nM | 
15 | FTEGKINPLL | 86 nM | 150 nM | 595 nM | 162 nM | 243 nM | 
16 | TIDNIVTSL | 2730 nM | 178 nM | 1040 nM | 2670 nM | 1860 nM | 
17 | VMYAFTTPLI | 12 nM | 0.72 nM | 4.8 nM | 3.1 nM | 132 nM | 

Row | Sequence | IC50 [1, 6] | IC50 [2, 6] | IC50 [3, 6] | IC50 [4, 6] | IC50 [5, 6] | other results
18 | LLLEWLAEV |  |  |  |  |  | IC50 ([1]; source organism: SARS-CoV1): 0.11 nM; IC50 ([2]; source organism: SARS-CoV1): 0.11 nM; IC50 ([3]; source organism: SARS-CoV1): 0.63 nM; IC50 ([4]; source organism: SARS-CoV1): 0.22 nM; IC50 ([5]; source organism: SARS-CoV1): 339 nM
19 | LLTDTIESA | 5.9 nM | 17 nM | 11 nM | 25 nM | 1240 nM | 
20 | WISFAISCFL |  |  |  |  |  | IC50 [1, 7]: 819 nM; IC50 [2, 7]: 230 nM; IC50 [3, 7]: 355 nM; IC50 [4, 7]: 3510 nM; IC50 [5, 7]: 364 nM
21 | NVSGVPHSV | 278 nM | 825 nM | 24 nM | 592 nM | 2.8 nM | 
22 | NVIEDITFL | 26 nM | 146 nM | 300 nM | 304 nM | 31 nM | 
23 | ITAIYVFCI |  |  |  |  |  | IC50 ([1]; source organism: SARS-CoV1): 132 nM; IC50 ([2]; source organism: SARS-CoV1): 29 nM; IC50 ([3]; source organism: SARS-CoV1): 89 nM; IC50 ([4]; source organism: SARS-CoV1): 127 nM; IC50 ([5]; source organism: SARS-CoV1): 272 nM
24 | NCLSLLLSV |  |  |  |  |  | IC50 [1, 8]: 630 nM; IC50 [2, 8]: 49 nM; IC50 [3, 8]: 437 nM; IC50 [4, 8]: 73 nM; IC50 [5, 8]: 1850 nM
25 | NVDIIDLLL | 22 nM | 461 nM | 4090 nM | 858 nM | 262 nM | 
26 | YLMCLSPLM |  |  |  |  |  | IC50 ([1]; source organism: SARS-CoV1): 1.1 nM; IC50 ([2]; source organism: SARS-CoV1): 0.14 nM; IC50 ([3]; source organism: SARS-CoV1): 0.3 nM; IC50 ([4]; source organism: SARS-CoV1): 0.34 nM; IC50 ([5]; source organism: SARS-CoV1): 1240 nM
27 | SMYGKAFNHA | 4 nM | 6.6 nM | 0.93 nM | 9.7 nM | 163 nM | 
28 | AAAATCALV | 12 nM | 15 nM | 9.1 nM | 41 nM | 12 nM | 
29 | IMETIDPVYI | 349 nM | 29 nM | 239 nM | 127 nM | 821 nM | 
30 | NVSRVVECL | 1030 nM | 133 nM | 938 nM | 4110 nM | 28 nM | 
31 | FQVDCFLWH |  |  |  |  |  | IC50 [1, 7]: 93 nM; IC50 [2, 7]: 216 nM; IC50 [3, 7]: 1260 nM; IC50 [4, 7]: 336 nM; IC50 [5, 7]: 3660 nM
32 | HSLPRCWLV |  |  |  |  |  | IC50 [1, 9]: 323 nM; IC50 [2, 9]: 655 nM; IC50 [3, 9]: 147 nM; IC50 [4, 9]: 2130 nM; IC50 [5, 9]: 660 nM
33 | FLFLAWIML |  |  |  |  |  | IC50 ([1]; source organism: SARS-CoV1): 37 nM; IC50 ([2]; source organism: SARS-CoV1): 1.8 nM; IC50 ([3]; source organism: SARS-CoV1): 38 nM; IC50 ([4]; source organism: SARS-CoV1): 6.4 nM; IC50 ([5]; source organism: SARS-CoV1): 1340 nM
34 | FLAFVVFLL |  |  |  |  |  | IC50 ([1]; source organism: SARS-CoV1): 2.6 nM; IC50 ([2]; source organism: SARS-CoV1): 0.41 nM; IC50 ([3]; source organism: SARS-CoV1): 88 nM; IC50 ([4]; source organism: SARS-CoV1): 0.24 nM; IC50 ([5]; source organism: SARS-CoV1): 391 nM

Source: the Immune Epitope Database (IEDB)
